Measured values taken from patent US20140294758A1 (published 2014).

T1: high affinity IL2 receptor on CTLL-2 mouse T cells (mouse, UniProt P01590 22-268; P16297 27-539; P34902 23-369)
T1 sequence (looked up) 1: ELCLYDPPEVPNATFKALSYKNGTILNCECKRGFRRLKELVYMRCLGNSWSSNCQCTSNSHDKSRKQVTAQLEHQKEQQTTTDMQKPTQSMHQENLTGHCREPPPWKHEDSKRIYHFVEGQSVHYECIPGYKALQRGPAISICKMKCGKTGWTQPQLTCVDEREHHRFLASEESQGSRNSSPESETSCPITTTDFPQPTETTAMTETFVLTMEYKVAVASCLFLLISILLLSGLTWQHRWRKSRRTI
T1 sequence (looked up) 2: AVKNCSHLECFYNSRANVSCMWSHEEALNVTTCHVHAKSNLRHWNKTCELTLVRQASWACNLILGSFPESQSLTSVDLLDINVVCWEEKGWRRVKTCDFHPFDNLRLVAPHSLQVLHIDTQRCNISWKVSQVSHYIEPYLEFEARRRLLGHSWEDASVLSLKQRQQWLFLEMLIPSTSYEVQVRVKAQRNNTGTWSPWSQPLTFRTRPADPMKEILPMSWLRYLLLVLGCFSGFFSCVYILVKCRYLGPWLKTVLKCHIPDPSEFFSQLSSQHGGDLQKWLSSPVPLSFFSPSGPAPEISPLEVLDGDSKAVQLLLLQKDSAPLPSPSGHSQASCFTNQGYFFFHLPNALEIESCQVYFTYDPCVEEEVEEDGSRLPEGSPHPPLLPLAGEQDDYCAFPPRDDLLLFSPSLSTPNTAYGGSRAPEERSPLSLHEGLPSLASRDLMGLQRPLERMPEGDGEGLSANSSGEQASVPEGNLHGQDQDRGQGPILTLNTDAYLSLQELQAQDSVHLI
T1 sequence (looked up) 3: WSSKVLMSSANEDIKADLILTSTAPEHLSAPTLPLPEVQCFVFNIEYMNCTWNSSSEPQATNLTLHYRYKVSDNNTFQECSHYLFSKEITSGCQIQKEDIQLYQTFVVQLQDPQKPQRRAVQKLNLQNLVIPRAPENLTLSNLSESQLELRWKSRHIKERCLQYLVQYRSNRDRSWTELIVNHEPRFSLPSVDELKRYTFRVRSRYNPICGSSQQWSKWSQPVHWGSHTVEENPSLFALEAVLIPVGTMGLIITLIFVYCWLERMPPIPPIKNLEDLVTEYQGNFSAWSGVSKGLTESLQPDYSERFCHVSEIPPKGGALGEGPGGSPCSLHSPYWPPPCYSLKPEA

T2: intermediate affinity IL2 receptor on TF-1β cells (UniProt P14784 27-551; P31785 23-369)
T2 sequence (looked up) 1: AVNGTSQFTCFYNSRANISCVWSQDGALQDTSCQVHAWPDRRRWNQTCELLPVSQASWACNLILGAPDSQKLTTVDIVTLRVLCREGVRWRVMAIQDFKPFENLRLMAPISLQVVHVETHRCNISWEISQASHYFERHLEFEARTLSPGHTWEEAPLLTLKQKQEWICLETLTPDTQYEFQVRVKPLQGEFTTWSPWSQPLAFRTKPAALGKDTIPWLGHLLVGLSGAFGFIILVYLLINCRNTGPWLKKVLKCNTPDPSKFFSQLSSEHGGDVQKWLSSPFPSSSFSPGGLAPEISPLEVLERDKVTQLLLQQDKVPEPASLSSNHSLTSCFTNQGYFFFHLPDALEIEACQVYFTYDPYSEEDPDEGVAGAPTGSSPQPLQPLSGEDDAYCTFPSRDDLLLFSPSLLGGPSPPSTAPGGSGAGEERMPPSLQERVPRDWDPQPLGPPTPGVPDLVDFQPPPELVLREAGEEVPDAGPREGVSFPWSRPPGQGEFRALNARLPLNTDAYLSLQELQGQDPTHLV
T2 sequence (looked up) 2: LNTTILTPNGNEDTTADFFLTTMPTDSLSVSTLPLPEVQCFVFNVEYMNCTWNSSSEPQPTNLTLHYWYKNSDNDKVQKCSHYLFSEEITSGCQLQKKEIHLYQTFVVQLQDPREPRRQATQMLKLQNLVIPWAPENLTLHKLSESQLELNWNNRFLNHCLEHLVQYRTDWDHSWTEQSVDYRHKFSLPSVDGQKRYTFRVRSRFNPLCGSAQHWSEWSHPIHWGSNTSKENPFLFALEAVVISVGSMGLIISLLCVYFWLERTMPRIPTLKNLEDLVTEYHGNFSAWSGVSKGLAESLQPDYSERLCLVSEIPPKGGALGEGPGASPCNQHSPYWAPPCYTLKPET

B1: 14.18-IL2-L containing SEQ ID NO: 5 (other)
light: EIVMTQSPATLSVSPGERATLSCRSSQSLVHRNGNTYLHWYLQKPGQSPKLLIHKVSNRFSGVPDRFSGSGSGTDFTLKISRVEAEDLGVYFCSQSTHVPPLTFGAGTKLELKRTVAAPSVFIFPPSDEQLKSGTASVVCLLNNFYPREAKVQWKVDNALQSGNSQESVTEQDSKDSTYSLSSTLTLSKADYEKHKVYACEVTHQGLSSPVTKSFNRGECAPTSTQLQLEHLLLDLQMILNGINNYKNPKLTRMLTFKFYMPKKATELKHLQCLEEELKPLEEVLNLAQSKNFHLRPRDLISNINVIVLELKGSETTFMCEYADETATIVEFLNRWITFCQSIISTLT
VH: EVQLLQSGPELEKPGASVMISCKASGSSFTGYNMNWVRQNIGKSLEWIGAIDPYYGGTSYNQKFKGRATLTVDKSSSTAYMHLKSLTSEDSAVYYCVSGMEYWGQGTSVTVSS
B2: 14.18-IL2-L containing SEQ ID NO: 6 (other)
light: IVMTQSPATLSVSPGERATLSCRSSQSLVHRNGNTYLHWYLQKPGQSPKLLIHKVSNRFSGVPDRFSGSGSGTDFTLKISRVEAEDLGVYFCSQSTHVPPLTFGAGTKLELKRTVAAPSVFIFPPSDEQLKSGTASVVCLLNNFYPREAKVQWKVDNALQSGNSQESVTEQDSKDSTYSLSSTLTLSKADYEKHKVYACEVTHQGLSSPVTKSFNRGECTQLQLEHLLLDLQMILNGINNYKNPKLTRMLTFKFYMPKKATELKHLQCLEEELKPLEEVLNLAQSKNFHLRPRDLISNINVIVLELKGSETTFMCEYADETATIVEFLNRWITFCQSIISTLT
VH: B1 VH

Key:
Assay in all cases: cell-based or functional assay
[1] = molecular target: intermediate affinity IL2 receptor on TF-1β cells (UniProt P14784)
[2] = molecular target: high affinity IL2 receptor on CTLL-2 mouse T cells (mouse) (UniProt P01590)
[3] = molecular target: T1, high affinity IL2 receptor on CTLL-2 …
[4] = molecular target: T2, intermediate affinity IL2 receptor on …

Molecule	Relative Activity High aff/Inter Aff (intermediate affinity part) [1]	Relative Activity High aff/Inter Aff (high affinity part) [2]	Selectivity for High Affinity Receptor [2]	Relative Activity High aff/Inter Aff (high affinity part) [3]	Selectivity for High Affinity Receptor [3]	Relative Activity High aff/Inter Aff (intermediate affinity part) [4]	TF-1β (Int aff) ED50 [4] [µg/mL]
ch14.18-IL2-H heavy chain fusion (H-fusion with a chimeric 14.18)	1	1	1				
B1				1	> 100	0.01	> 0.5
B2				1	> 100	0.01	> 0.5
